The target of this test is CD32 (FcγRII) on human plasmacytoid dendritic cells (human) (UniProt P12318). Description: cell-based or functional assay.

Ends that are not written are not given here.

Chain of CD32 (FcγRII) on human plasmacytoid dendritic cells (human) (P12318 34-317): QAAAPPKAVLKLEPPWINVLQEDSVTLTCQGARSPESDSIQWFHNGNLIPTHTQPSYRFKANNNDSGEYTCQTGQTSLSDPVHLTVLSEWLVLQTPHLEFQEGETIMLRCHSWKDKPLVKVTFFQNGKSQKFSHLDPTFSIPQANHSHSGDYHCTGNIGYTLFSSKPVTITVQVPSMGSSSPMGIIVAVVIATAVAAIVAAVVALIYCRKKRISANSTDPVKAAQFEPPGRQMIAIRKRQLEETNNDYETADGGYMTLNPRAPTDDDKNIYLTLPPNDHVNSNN

B1: aCD32a peptide published by Berntzen et al, …-biotin (peptide)
peptide: ADGAWAWVWLTETAVGAAK-biotin
Turning to B1, the IL-6 production of pDCS in PBMC after stimulation with CPG-C stood at 75 times and the TNFα induction in PBMC after stimulation with CPG-C came to 3 times.

(Values after patent publication US20130243767A1.)
